The values that follow come from patent EP2390325A1, “FLAVONOID-3-GLUCURONYLTRANSFERASE AND POLYNUCLEOTIDE ENCODING SAME” (Suntory Holdings Limited, priority 2009, dated 2010).

Data set [1] deals with T1, VvGT5 (Vitis vinifera, UniProt C7G3B5).
T1 sequence (C7G3B5 1-459): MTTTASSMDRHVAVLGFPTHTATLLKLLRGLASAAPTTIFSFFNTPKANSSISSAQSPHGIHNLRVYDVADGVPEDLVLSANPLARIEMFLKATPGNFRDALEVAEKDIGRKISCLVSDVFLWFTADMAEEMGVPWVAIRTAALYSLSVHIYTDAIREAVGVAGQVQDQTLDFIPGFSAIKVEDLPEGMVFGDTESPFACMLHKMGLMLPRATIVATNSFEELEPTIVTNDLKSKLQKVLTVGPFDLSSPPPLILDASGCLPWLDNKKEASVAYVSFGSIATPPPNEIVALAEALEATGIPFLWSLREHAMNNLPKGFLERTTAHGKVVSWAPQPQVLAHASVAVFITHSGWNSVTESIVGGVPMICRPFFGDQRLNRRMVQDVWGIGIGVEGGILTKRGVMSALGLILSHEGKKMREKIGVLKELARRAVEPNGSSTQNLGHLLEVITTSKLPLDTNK
The data set can be described thus: Glycosyl donor specificity of VvGT5, product amount by HPLC. The format is biochemical. The note with it: 100 µM quercetin, 1 mM glycosyl donor, pH 9.5, 30°C, 15 minutes. The method, then:
Next, the glycosyl donor specificity of this enzyme was examined. […] The reaction was started by adding the glycosyl acceptor. The reaction was stopped by adding an equal volume of 40% acetonitrile solution containing 0.1% TFA. After the reaction was stopped, the solution was centrifuged (15000 rpm, 2 mins., 4°C) and 100 µl of the resulting supernatant was provided for the HPLC analysis. The amounts of the products produced in the respective glycosyl donors were compared.

The target in data set [2] is T1, VvGT5. In words: Glycosyl acceptor specificity of VvGT5, product amount by HPLC. The format is biochemical. The note with it: 100 µM glycosyl acceptor, 1 mM UDP-glucuronic acid, pH 9.5, 30°C, 15 minutes. The method, then:
Next, the glycosyl acceptor specificity of this enzyme was examined. […] The reaction was started by adding the glycosyl acceptor. The reaction was stopped by adding an equal volume of 40% acetonitrile solution containing 0.1% TFA. After the reaction was stopped, the solution was centrifuged (15000 rpm, 2 mins., 4°C) and 100 µl of the resulting supernatant was provided for the HPLC analysis. The amounts of the products produced were compared for each glycosyl acceptor.
Anthocyanins were analyzed under the conditions below using the HPLC system described above. Conditions for the HPLC analysis of anthocyanins were as follows. Asahipak ODP-50 4E (4.6 x 250 mm, Showa Denko K.K.) as a column was used at room temperature. Moving phase A (0.5% TFA/H2O) and moving phase B (0.5% TFA/50% GH3CN) were used. Conditions for elution were as follows: Equilibration was performed with B30% for 3 minutes, followed by linear density gradients (B30%→B65%) for 15 minutes and (B65%→B100%) for further 1 minute, which was maintained for 5 minutes at B100%. Thereafter, the condition was again reverted to B30% to equilibrate for 10 minutes. The flow rate was 0.7 ml/min. Detection was performed at 520 nm. Under the conditions, standard pelargonidin, cyanidin and delphinidin were sequentially eluted in this order at retention times of approximately […], respectively.

Substrate in data set [3]: COc1cc(-c2oc3cc(O)cc(O)c3c(=O)c2O)ccc1O
The data set can be described thus: Kinetic analysis of VvGT5 (Km, kcat). The note with it: other: glycosyl acceptor substrate; purified His-tagged VvGT5; pH 9.5; 30.0 °C. The format is biochemical, Vitis vinifera.

Substrate in data set [4]: O=c1c(O)c(-c2ccc(O)cc2)oc2cc(O)cc(O)c12
The data set can be described thus: Kinetic analysis of VvGT5 (Km, kcat). The format is biochemical, Vitis vinifera. The note with it: other: glycosyl acceptor substrate; purified His-tagged VvGT5; pH 9.5; 30.0 °C.

Substrate in data set [5]: O=c1c(O)c(-c2ccc(O)c(O)c2)oc2cc(O)cc(O)c12
The data set can be described thus: Kinetic analysis of VvGT5 (Km, kcat). The format is biochemical, Vitis vinifera. Particulars: other: glycosyl acceptor substrate; purified His-tagged VvGT5; pH 9.5; 30.0 °C.

Substrate in data set [6]: O=C(O)[C@H]1O[C@H](OP(=O)(O)OP(=O)(O)OC[C@H]2O[C@@H](n3ccc(=O)[nH]c3=O)[C@H](O)[C@@H]2O)[C@H](O)[C@@H](O)[C@@H]1O
In words: purified protein, by the assay type. Particulars: other: glycosyl donor; purified His-tagged VvGT5; pH 9.5; 30.0 °C.

For the molecule `O=C(O)[C@H]1O[C@H](OP(=O)(O)OP(=O)(O)OC[C@H]2O[C@@H](n3ccc(=O)[nH]c3=O)[C@H](O)[C@@H]2O)[C@H](O)[C@@H](O)[C@@H]1O` [UDP-glucuronic acid], on VvGT5 [1], the “product formation with glycosyl donor” value was “the product was obtained only when UDP-glucuronic acid was used as the substrate”.

For `O=c1c(O)c(-c2ccc(O)c(O)c2)oc2cc(O)cc(O)c12` [quercetin], the “activity of VvGT5 on glycosyl acceptor” value on VvGT5 [2] is “highest activity”.

B1: VvGT5 (Vitis vinifera) (protein)
chain: T1 sequence (C7G3B5 1-459)
Usually Km stands for the concentration of substrate that gives half-maximal velocity. The kcat is the number of substrate molecules converted per active site and unit of time at saturation. As for B1, the Michaelis-Menten constant (Km) amounted to 7.92 ± 0.32 µM in data set [3], 10.8 ± 0.4 µM in data set [4], 5.60 ± 1.76 µM in data set [5] and 17.7 µM in data set [6]. Besides, the values for the kcat in data set [3], in data set [4] and in data set [5] were 0.413 ± 0.03 s⁻¹, 6.05 ± 0.05 s⁻¹ and 7.16 ± 0.37 s⁻¹, respectively.
